# Experimental data published in publication PMC3293901, “Identification, Purification and Characterization of Laterosporulin, a Novel Bacteriocin Produced by Brevibacillus sp. Strain GI-9” (PLoS ONE, 2012).
# Experiments:
# E. coli [1] = assay: Growth inhibition assay of the synthetic partial peptide; type: cell-based; details: custom synthesized 19-mer, indicator strain E. coli
# Excerpt: (§1) The molecular mass observed for laterosporulin by MALDI-TOF was 5605.8 Da ( Fig. 3 ), which is in good agreement with mass obtained by gel filtration chromatography ( Fig. 2A ). The N-terminal sequence of laterosporulin yielded partial sequence of ^1A(M)Q(C)QG(C/Q)PDAISGWTHTDYQCH^19 for two independently processed samples. The uncertainties at the 1st, 2nd and 4th positions obtained in N-terminal sequences were considered to predict the antibacterial activity of each possible peptide sequence using a database of peptides with known antimicrobial potency. […] To confirm the antimicrobial activity of this partial peptide, it was custom synthesized, mass was confirmed by MALDI-TOF and the synthetic peptide was examined in growth inhibition assays using indicator strains B. subtilis and E. coli.
# (§2) To evaluate antibacterial function of the N-terminal peptide, a 19-mer peptide representing the N-terminal sequence of the bioactive protein was synthesized using standard Fmoc-chemistry on 2-chlorotrityl resin (0.2 mmol/g). Synthesis was carried out on a semi-automated synthesizer (PS-II) (Protein Technologies Inc., AZ USA). It was cleaved with TFA and purified by RP-HPLC system (Dionex, Ultimate-3000) using C-18 analytical column. The purified peptide was subjected to MALDI-TOF analysis for confirmation of molecular mass.
# B. subtilis = assay: as above; type: cell-based; details: custom synthesized 19-mer, indicator strain B. subtilis
# Excerpt: as §1, §2
# L. monocytogenes = assay: Growth inhibition of test strain; type: cell-based; details: test strain L. monocytogenes (MTCC 839)
# Description: (§3) The CFB of strain GI-9 was used to determine the antimicrobial activity. Culture was grown for 48 hours in nutrient broth (NB, Himedia) and subsequently cells were removed by centrifugation (10,000 rpm for 10 min, 4°C). The supernatant obtained was filtered by using 0.22 µm filter (Millipore). The filtrate was diluted by two fold dilution and amounts of 100 µl of different dilutions were used to test the activity. These dilutions were added to the wells that are prepared in plates containing nutrient agar medium seeded with test organism. Above test was also performed using minimal medium to check influence of the medium components on antimicrobial activity. A growth curve up to 24 hours was prepared for strain GI-9 to examine the bacteriocin production at different stages. One unit of bacteriocin was defined as the […] dilution that was given an inhibition zone around the well and reciprocal of this dilution is defined as the unit of antimicrobial activity per ml.
# proteinase K = proteinase K (Parengyodontium album, UniProt P06873); assay: Resistance to proteolytic enzyme, residual antimicrobial activity; type: in vitro ADME; details: 6 hours at 37°C, enzyme terminated by heating at 80°C
# Sequence of proteinase K (P06873 106-384): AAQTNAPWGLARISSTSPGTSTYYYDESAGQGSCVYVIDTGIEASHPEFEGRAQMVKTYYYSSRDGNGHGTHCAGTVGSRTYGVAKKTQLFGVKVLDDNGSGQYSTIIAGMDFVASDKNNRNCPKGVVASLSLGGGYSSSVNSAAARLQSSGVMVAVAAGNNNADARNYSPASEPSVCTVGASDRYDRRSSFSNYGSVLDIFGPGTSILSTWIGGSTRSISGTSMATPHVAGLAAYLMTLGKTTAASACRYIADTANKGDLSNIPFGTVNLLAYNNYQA
# Description: (§4) The sensitivity of the purified bacteriocin towards different pH, temperature and proteases was evaluated. To determine pH and temperature resistance, the purified peptide was incubated at different pH values between 2.0–12.0 and temperatures 80, 100°C for 30 min and 120°C for 15 min. Different hydrolytic enzymes including pepsin, trypsin, chymotrypsin, proteinase K, pronase E and amylase were incubated with bacteriocin for 6 hours at 37°C to ensure their effect. The enzyme activity was terminated by heating at 80°C before the bacteriocin activity was confirmed.
# pronase E = assay: as above; type: in vitro ADME; details: 6 hours at 37°C, enzyme terminated by heating at 80°C
# Description: as §4
# pepsin = assay: as above; type: in vitro ADME; details: 6 hours at 37°C, enzyme terminated by heating at 80°C
# Description: as §4
# trypsin = assay: as above; type: in vitro ADME; details: 6 hours at 37°C, enzyme terminated by heating at 80°C
# Description: as §4
# chymotrypsin = assay: as above; type: in vitro ADME; details: 6 hours at 37°C, enzyme terminated by heating at 80°C
# Description: as §4
# [2] = system: Gram-positive and Gram-negative bacteria; assay: Antibacterial spectrum; type: cell-based; details: wide range of Gram-positive and Gram-negative bacteria
# Description: as §3
# The MIC of bacteriocin for different strains was evaluated by using a microtiter plate dilution assay. […] The first column of the microtiter plate was left as a blank while reading through an ELISA plate reader (Thermo Scientific). The microtiter plates were incubated at 30°C incubator and OD was measured at 600 nm at different time intervals.
# [3] = Treatment with dithiothreitol, residual antimicrobial activity; type: physicochemical; details: DTT used to disrupt disulfide bonds; data not shown
# B.subtilis = assay: MIC, microtiter plate dilution assay; type: cell-based; details: purified laterosporulin, micro-titer plates, triplicates, 30°C, OD 600 nm, 48 h
# Description: (§5) The MIC of bacteriocin for different strains was evaluated by using a microtiter plate dilution assay. Test strains were grown to logarithmic phase under optimal conditions (up to 0.3 OD) and the test was performed in triplicates. Each well of the microtiter plate was added with 200 µl of fresh nutrient medium and 50 µl of test strains in different rows. Subsequently, different dilutions (50 µl) of freshly prepared bacteriocin were added to each well. The first column of the microtiter plate was left as a blank while reading through an ELISA plate reader (Thermo Scientific). The microtiter plates were incubated at 30°C incubator and OD was measured at 600 nm at different time intervals.
# S. aureus = assay: MIC, microtiter plate dilution assay; type: cell-based; details: purified laterosporulin, micro-titer plates, triplicates, 30°C, OD 600 nm, 48 h
# Description: as §5
# [4] = Heat stability, residual antimicrobial activity; type: physicochemical; details: 120°C for 15 min
# Description: as §4
# [5] = pH stability, residual antimicrobial activity; type: physicochemical
# Description: as §4
# E. coli [6] = assay: Bactericidal effect by scanning electron microscopy; type: cell-based; details: 500 µg/ml purified peptide, 4 hours, 37°C, about 2×10^7 cells/ml; compared to untreated bacteria
# Description: To examine the bactericidal activity, E.coli cells were grown in NB to an exponential phase, harvested by centrifugation. The pellet obtained was resuspended in fresh NB and aliquots of 5 ml containing about 2×10^7 cells/ml were incubated at 37°C for 4 hours with 500 µg/ml laterosporulin. Samples at 0, 2 and 4 hours interval were centrifuged and pellets were resuspended in 500 µl of phosphate buffer. Each sample was spread on a poly (L-lysine)-coated glass slides (18×18 mm) to immobilize bacterial cells and incubated at 30°C for 90 min. They were fixed with modified Karnovsky's fixative and dehydrated with a graded ethanol series.
Substance,antimicrobial activity (E. coli [1]),antimicrobial activity (B. subtilis),growth inhibition (L. monocytogenes),antimicrobial activity after incubation with proteinase K (proteinase K),antimicrobial activity after incubation with pronase E (pronase E),antimicrobial activity after incubation with pepsin (pepsin),antimicrobial activity after incubation with trypsin (trypsin),antimicrobial activity after incubation with chymotrypsin (chymotrypsin),antibacterial activity [2],antimicrobial activity after treatment with dithiothreitol (DTT) [3],"MIC (sensitivity in words, values only in Fig. 4) (B.subtilis)","MIC (sensitivity in words, values only in Fig. 4) (S. aureus)",heat stability (antimicrobial activity after exposure) [4],pH stability (antimicrobial activity after incubation) ([5]; above pH 10 (tested up to 12.0)),pH stability (antimicrobial activity after incubation) ([5]; pH between 2.0 to 10.0),"bactericidal effect, cell morphology by SEM (E. coli [6])"
ACQCPDAISGWTHTDYQCH,weak antimicrobial activity at significantly higher concentration,weak antimicrobial activity at significantly higher concentration,–,–,–,–,–,–,–,–,–,–,–,–,–,–
"^1A(M)Q(C)QG(C/Q)PDAISGWTHTDYQCH^19 [laterosporulin, 5.6 kDa bacteriocin purified from culture supernatant of Brevibacillus sp. strain GI-9]",–,–,could inhibit the growth,did not show any reduction,did not show any reduction,did not show any reduction,did not show any reduction,did not show any reduction,active,did not affect,highly sensitive,highly sensitive,no reduction in antimicrobial activity,reduced significantly,no reduction in antimicrobial activity,significant modifications in cell shape and morphology
